Test results: patent publication US20170015742A1 (published 2017)
Changes are numbered by the printed parent chain. Names and notes keep the numbering of the source. Values belong to the binder of their own block, whether it stands above or below them.

What was measured:
[1] = target: T1, recombinant human VEGF165 (human, UniProt P15692 207-395); assay: competition ELISA: blocks biotinylated hVEGF165 binding to coated hVEGF-R2-Fc
T1 construct: also called hVEGF165; huVEGF-A165
Experimental: To identify molecules that could block the binding of hVEGF₁₆₅ to the hVEGF-R2 (KDR/Flk-1) receptor, a competition ELISA was performed. […] Plates were then washed four times with wash buffer (TBS, 0.05% Tween-20) and blocked with Superblock blocking buffer (Thermo Scientific, cat#37535). […] The pre-incubated sample/hVEGF₁₆₅ complex was added to the coated plate at 50 μL in duplicate and incubated for 30 minutes at 25° C. with shaking. Following incubation, plates were washed four times with wash buffer. Streptavidin-polyHRP-40 (Fitzgerald cal#65r-s104phrp) was diluted in assay diluent (10% Superblock containing 0.05% surfactamps) and added to plates (50 μL) for 45 minutes at 25° C. with shaking. Plates were washed four times with wash buffer and developed with the addition of Enhanced K-blue TMB substrate (Neogen cat#308177). The reaction was stopped with 2N sulfuric acid (VWR, cat# BDH3500-1) and the absorbance was read at 450 nm-570 nm. A decrease in observed optical density indicates the test molecule is blocking the hVEGF₁₆₅ binding to the hVEGF-R2-Fc. Data was analyzed using Softmax Pro 4.8 software and IC₅₀ values calculated using a sigmoidal dose response (variable slope) fit in GraphPad Prism 5.

[2] = target: T2, recombinant human PDGF-BB (human, UniProt P01127 82-190); assay: cell-based or functional assay
[3] = target: T1, recombinant human VEGF165; assay: cell-based or functional assay
[4] = target: T2, recombinant human PDGF-BB; assay: competition ELISA: blocks hPDGF-BB-biotin binding to coated hPDGF-Rβ-Fc
Experimental: (§1) Plates were then washed four times with wash buffer (TBS, 0.05% Tween-20) and blocked with Superblock blocking buffer (Thermo Scientific, cat#37535). During the blocking step, supernatants, antibodies, benchmark compounds or DVD-Ig were diluted in assay diluent (10% Superblock containing 0.05% surfactamps) and an eight point titration of each sample molecule was performed. […] Following incubation, plates were washed four times with wash buffer. Detection reagent Streptavidin-polyHRP-40 (Fitzgerald, cat#65r-s104phrp) was diluted in assay diluent and added to plates (50 μL) for 45 minutes at 25° C. with shaking. Plates were washed four times with wash buffer and developed with the addition of Enhanced K-blue TMB substrate (Neogen, cat#308177). The reaction was stopped with 2N sulfuric acid (VWR, cat# BDH3500-1) and the absorbance was read at 450 nm-570 nm. […] Data was analyzed using Softmax Pro 4.8 software and IC₅₀ values calculated using a sigmoidal dose response (variable slope) fit in GraphPad Prism 5.

[5] = target: T3, recombinant human PDGF-BB (human, UniProt P01127 82-190, biotin-labelled in the binding and competition ELISAs (sites not given)); assay: receptor competition ELISA: antibody pre-incubated with biotin-hPDGF-BB, binding to coated hPDGF-Rβ-Fc
T3 construct: Bought protein (CST cat#8912BF) in the ELISAs and cell assays; purified recombinant PDGF-BB in Biacore; also called huPDGF-BB; hPDGF-BB
Experimental: as §1

[6] = target: T3, recombinant human PDGF-BB; assay: cell-based or functional assay
[7] = target: T4, recombinant human VEGF-R2-Fc (human, UniProt P35968 20-764); assay: competition ELISA: antibody added to coated hVEGF-R2-Fc, then biotinylated hVEGF165 (competitor)
T4 construct: Bought Fc fusion (R&D Systems cat#357-KD); also called hVEGFR2-Fc; VEGF-R2 (KDR/Flk-1); not shown: Fc part of the bought fusion protein
Experimental: To identify molecules which could block the binding of VEGF-R2 (KDR/Flk-1) to hVEGF₁₆₅, a competition ELISA was performed. […] Plates were then washed four times with wash buffer (TBS, 0.05% Tween-20) and blocked with Superblock blocking buffer (Thermo Scientific, cat#37535). […] The samples were added to wells and incubated for 30 minutes at 25° C. with shaking. […] Following incubation, plates were washed four times with wash buffer. Streptavidin-polyHRP-40 (Fitzgerald cat#65r-s104phrp) was diluted in assay diluent (10% Superblock containing 0.05% surfactamps) and added to plates (50 μL) for 45 minutes at 25° C. with shaking. Plates were washed four times with wash buffer and developed with the addition of Enhanced K-blue TMB substrate (Neogen cat#308177). The reaction was stopped with 2N sulfuric acid (VWR, cat# BDH3500-1) and the absorbance was read at 450 nm-570 nm. A decrease in observed optical density indicates the test molecule is blocking the human VEGF-R2-Fc binding to hVEGF₁₆₅. Data was analyzed using Softmax Pro 4.8 software and IC₅₀ values calculated using a sigmoidal dose response (variable slope) fit in GraphPad Prism 5.
Humanized anti-VEGFR2 antibodies were tested for potency against hVEGFR2 in functional assay formats. The antibodies were characterized for the ability to block VEGFR2 binding to hVEGF₁₆₅ in a competition ELISA format (Example 1.22).

T2 sequence (P01127 82-190 limits assumed): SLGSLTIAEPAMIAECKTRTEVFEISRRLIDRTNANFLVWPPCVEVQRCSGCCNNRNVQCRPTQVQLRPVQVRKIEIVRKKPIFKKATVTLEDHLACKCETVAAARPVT
T1 sequence (P15692 other isoform, or with tags, fused parts or gaps limits assumed): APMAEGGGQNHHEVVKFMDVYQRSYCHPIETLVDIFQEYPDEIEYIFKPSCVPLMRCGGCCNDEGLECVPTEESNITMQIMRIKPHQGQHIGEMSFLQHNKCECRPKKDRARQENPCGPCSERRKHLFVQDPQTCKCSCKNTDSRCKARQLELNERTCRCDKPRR
T4 sequence (P35968 20-764 limits assumed): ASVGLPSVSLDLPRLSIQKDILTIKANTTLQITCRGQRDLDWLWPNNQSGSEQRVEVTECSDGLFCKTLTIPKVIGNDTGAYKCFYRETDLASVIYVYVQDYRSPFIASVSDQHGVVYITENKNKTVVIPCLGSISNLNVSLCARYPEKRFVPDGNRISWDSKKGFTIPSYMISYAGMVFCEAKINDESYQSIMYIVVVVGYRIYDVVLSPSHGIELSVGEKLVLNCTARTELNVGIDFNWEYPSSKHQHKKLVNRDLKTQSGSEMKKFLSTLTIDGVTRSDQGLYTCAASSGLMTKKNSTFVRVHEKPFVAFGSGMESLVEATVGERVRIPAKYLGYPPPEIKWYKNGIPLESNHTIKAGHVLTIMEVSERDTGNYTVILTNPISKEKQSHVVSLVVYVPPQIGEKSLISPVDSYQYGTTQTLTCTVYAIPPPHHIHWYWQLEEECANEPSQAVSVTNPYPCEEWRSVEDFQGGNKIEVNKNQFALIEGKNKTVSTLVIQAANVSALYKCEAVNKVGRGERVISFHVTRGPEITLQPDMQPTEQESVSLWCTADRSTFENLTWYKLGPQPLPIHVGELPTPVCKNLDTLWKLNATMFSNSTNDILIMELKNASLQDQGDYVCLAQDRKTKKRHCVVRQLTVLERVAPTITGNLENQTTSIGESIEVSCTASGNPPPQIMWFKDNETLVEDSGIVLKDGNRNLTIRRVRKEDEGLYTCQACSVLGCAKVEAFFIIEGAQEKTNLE
T3 sequence (P01127 82-190 limits assumed): as the sequence (P01127 82-190 limits assumed) above

IC50 [1]: 0.137 nM
Potency IC50 (nM) NIH-3T3 hPDGF-BB [2]: 0.63 nM
Potency IC50 (nM) HMVEC-d hVEGF165 [3]: 0.341 nM
IC50 [4]: > 5 nM
B1: hVEGF 4G8.3-GS-hPDGF 9E8.4 [hu IgG1/k] mut(234, 235) H435A (bispecific antibody)
heavy: EVQLVQSGSELKKPGASVKVSCKASGYTFTNYGMYWVRQAPGQGLEWMGWINTETGKPTYADDFKGRFVFSLDTSVSTAYLQISSLKAEDTAVYYCARTNYYYRSYIFYFDYWGQGTMVTVSSGGGGSGGGGSEVTLRESGPALVKPTQTLTLTCTFSGFSLSTYGMGVGWIRQPPGKALEWLANIWWDDDKYYNPSLKNRLTISKDTSKNQVVLTMTNMDPVDTATYYCARIESIGTTYSFDYWGQGTMVTVSSASTKGPSVFPLAPSSKSTSGGTAALGCLVKDYFPEPVTVSWNSGALTSGVHTFPAVLQSSGLYSLSSVVTVPSSSLGTQTYICNVNHKPSNTKVDKKVEPKSCDKTHTCPPCPAPEAAGGPSVFLFPPKPKDTLMISRTPEVTCVVVDVSHEDPEVKFNWYVDGVEVHNAKTKPREEQYNSTYRVVSVLTVLHQDWLNGKEYKCKVSNKALPAPIEKTISKAKGQPREPQVYTLPPSREEMTKNQVSLTCLVKGFYPSDIAVEWESNGQPENNYKTTPPVLDSDGSFFLYSKLTVDKSRWQQGNVFSCSVMHEALHNAYTQKSLSLSPGK
light: DTVLTQSPATLSLSPGERATLSCRASESVSTHMHWYQQKPGQAPRLLIYGASNLESGVPARFSGSGSGTDFTLTISSLEPEDFAVYFCQQSWNDPFTFGQGTKLEIKRGGSGGGGSGEFVLTQSPGTLSLSPGERATLSCERSSGDIGDSYVSWYQQKPGQAPRLVIYADDQRPSGIPDRFSGSGSGTDFTLTISRLEPEDFAVYYCQSYDINIDIVFGGGTKVEIKGTVAAPSVFIFPPSDEQLKSGTASVVCLLNNFYPREAKVQWKVDNALQSGNSQESVTEQDSKDSTYSLSSTLTLSKADYEKHKVYACEVTHQGLSSPVTKSFNRGEC
notes: DVD-Ig, outer anti-VEGF hBDB-4G8.3, inner anti-PDGF hBDI-9E8.4; also called 4G8.3-GS-9E8.4

IC50 [7]: 0.335 nM
B5: hBCU-6B1.4 (antibody, V domains shown)
VH: EVQLVQSGAEVKKPGASVKVSCKASGYTFTNYGMYWVRQAPGQGLEFMGWINTETGQPTYADDFKGRFTFTLDTSTSTAYMELRSLRSDDTAVYYCARLGNNYGIWFAYWGQGTLVTVSS
VL: DIQMTQSPSSLSASVGDRVTITCRASDDLYSTLAWYQQKPGKSPKLLIFDANRLAAGVPSRFSGSGSGTDYTLTISSLQPEDVATYFCQQYNKFPWTFGGGTKVEIK
notes: Humanized anti-human VEGFR II IgG from pHybE expression vectors

IC50 [7]: 0.319 nM
B7: hBCU-6B1.3 (antibody, V domains shown)
VH: B5 VH
VL: B5 VL with T22E, T72S
notes: as for B5

IC50 [1]: 0.133 nM
Potency IC50 (nM) NIH-3T3 hPDGF-BB [2]: 0.427 nM
Potency IC50 (nM) HMVEC-d hVEGF165 [3]: 0.36 nM
IC50 [4]: > 5 nM
B8: hVEGF 4G8.3-SL-hPDGF 9E8.4 [hu IgG1/k] mut(234, 235) H435A (bispecific antibody)
heavy: EVQLVQSGSELKKPGASVKVSCKASGYTFTNYGMYWVRQAPGQGLEWMGWINTETGKPTYADDFKGRFVFSLDTSVSTAYLQISSLKAEDTAVYYCARTNYYYRSYIFYFDYWGQGTMVTVSSASTKGPEVTLRESGPALVKPTQTLTLTCTFSGFSLSTYGMGVGWIRQPPGKALEWLANIWWDDDKYYNPSLKNRLTISKDTSKNQVVLTMTNMDPVDTATYYCARIESIGTTYSFDYWGQGTMVTVSSASTKGPSVFPLAPSSKSTSGGTAALGCLVKDYFPEPVTVSWNSGALTSGVHTFPAVLQSSGLYSLSSVVTVPSSSLGTQTYICNVNHKPSNTKVDKKVEPKSCDKTHTCPPCPAPEAAGGPSVFLFPPKPKDTLMISRTPEVTCVVVDVSHEDPEVKFNWYVDGVEVHNAKTKPREEQYNSTYRVVSVLTVLHQDWLNGKEYKCKVSNKALPAPIEKTISKAKGQPREPQVYTLPPSREEMTKNQVSLTCLVKGFYPSDIAVEWESNGQPENNYKTTPPVLDSDGSFFLYSKLTVDKSRWQQGNVFSCSVMHEALHNAYTQKSLSLSPGK
light: DTVLTQSPATLSLSPGERATLSCRASESVSTHMHWYQQKPGQAPRLLIYGASNLESGVPARFSGSGSGTDFTLTISSLEPEDFAVYFCQQSWNDPFTFGQGTKLEIKRTVAAPSVFIFPPEFVLTQSPGTLSLSPGERATLSCERSSGDIGDSYVSWYQQKPGQAPRLVIYADDQRPSGIPDRFSGSGSGTDFTLTISRLEPEDFAVYYCQSYDINIDIVFGGGTKVEIKGTVAAPSVFIFPPSDEQLKSGTASVVCLLNNFYPREAKVQWKVDNALQSGNSQESVTEQDSKDSTYSLSSTLTLSKADYEKHKVYACEVTHQGLSSPVTKSFNRGEC
notes: DVD-Ig, outer hBDB-4G8.3, inner hBDI-9E8.4, HG-short/LK-long; also called 4G8.3-SL-9E8.4

Further lines, the binder ahead of its results:

B2: 9E10.1_GS_CL-33675 (bispecific antibody, human IgG1, kappa, L234A L235A)
heavy: EIQLVQSGSELKKPGASVKVSCKASGYTFTNYGMYWVKQAPGQGLEYMGWIDTETGRPTYADDFKGRFVFSLDTSVSTAYLQISSLKAEDTAVYFCARWSGDTTGIRGPWFAYWGQGTLVTVSSGGGGSGGGGSEVTLRESGPALVKPTQTLTLTCTFSGFSLSTYGMGVGWIRQPPGKALEWLANIWWDDDKYYNPSLKNRLTISKDTSKNQVVLTMTNMDPVDTATYYCARIESSGPKYSFDYWGQGTMVTVSSASTKGPSVFPLAPSSKSTSGGTAALGCLVKDYFPEPVTVSWNSGALTSGVHTFPAVLQSSGLYSLSSVVTVPSSSLGTQTYICNVNHKPSNTKVDKKVEPKSCDKTHTCPPCPAPEAAGGPSVFLFPPKPKDTLMISRTPEVTCVVVDVSHEDPEVKFNWYVDGVEVHNAKTKPREEQYNSTYRVVSVLTVLHQDWLNGKEYKCKVSNKALPAPIEKTISKAKGQPREPQVYTLPPSREEMTKNQVSLTCLVKGFYPSDIAVEWESNGQPENNYKTTPPVLDSDGSFFLYSKLTVDKSRWQQGNVFSCSVMHEALHNAYTQKSLSLSPGK
light: DIRMTQSPSSLSASVGDRVTIECLASEDIYSDLAWYQQKPGKSPKLLIYNANGLQNGVPSRFSGSGSGTDYSLTISSLQPEDVATYFCQQYNYFPGTFGQGTKLEIKGGSGGGGSGGEIVLTQSPGTLSLSPGERATLSCRASSGSIWYSFVSWYQQKPGQAPRLLIYADDQRASGIPDRFSGSGSGTDFTLTISRLEPEDFAVYYCQSYGINIDVVFGGGTKVEIKRTVAAPSVFIFPPSDEQLKSGTASVVCLLNNFYPREAKVQWKVDNALQSGNSQESVTEQDSKDSTYSLSSTLTLSKADYEKHKVYACEVTHQGLSSPVTKSFNRGEC
notes: DVD-Ig, outer hBEW-9E10.1, inner CL-33675, GS-H10/GS-L10(dR), hu IgG1/k LALA H435A; also called PR-1610561; 9E10.1-GS-33675
IC50 [1]: 0.045 nM
Potency IC50 (nM) NIH-3T3 hPDGF-BB [2]: 0.034 nM
Potency IC50 (nM) HMVEC-d hVEGF165 [3]: 0.145 nM
IC50 [4]: 0.09 nM

B3: chBDI-1E1 (antibody, human IgG1, V domains shown)
VH: EVKLQQSGDELVRPGASVKMSCKASGYTFTDYVMHWVKQSPGQGLEWIGTIIPLIDTTSYNQKFKGKATLTADKSSNTAYMELSRLTSEDSAVYYCARTSPYYYSSYDVMDAWGQGASVTVSS
VL: NIQLTQSPSLLSASVGDRVTLSCKGSQNINNYLAWYQQKLGEAPKLLIYKTNNLQTGIPSRFSGCGSGTDYTLTISSLHSEDLATYYCYQYDNGYTFGAGTKLELK
notes: also called chimeric BDI-1E1-D5
IC50 [5]: 0.417 nM
huPDGF-BB Neutralization Potency (nM) in NIH-3T3 Cells [6]: > 5 nM

B4: hBCU-6B1.2 (antibody, V domains shown)
VH: B5 VH with R38K, Y95F
VL: B5 VL with T22E, T72S
notes: as for B5
IC50 [7]: 0.34 nM

B6: hBCU-6B1.1 (antibody, V domains shown)
VH: EVQLVQSGSELKKPGASVKVSCKASGYTFTNYGMYWVKQAPGQGLEFMGWINTETGQPTYADDFKGRFVFSLDTSVSTAYLQISSLKAEDTAVYFCARLGNNYGIWFAYWGQGTLVTVSS
VL: B5 VL with T22E, T72S
notes: as for B5
IC50 [7]: 0.474 nM
